Results on 2 molecules are retold here after PMC7108862, “GPC1 specific CAR-T cells eradicate established solid tumor without adverse effects and synergize with anti-PD-1 Ab” (eLife, 2020).

Assay [1] deals with T1, recombinant mGPC1 protein (Mus musculus, UniProt Q9QZF2).
T1 construct: glypican-1 (GPC1), mouse, recombinant protein from Biolegend; also called Mouse GPC1; mouse glypican-1; source: bought: Biolegend
The assay is described as follows: SPR; scFv-Fc fusion protein (1 μg/ml) captured by polyclonal rabbit anti-mouse IgG immobilised on CM5 chip; recombinant hGPC1 (6.25–400 nM) or mGPC1 (25–400 nM) injected; 25°C, HBS-EP+ buffer, Biacore T200. The settings on record: both partners purified. (SPR reads the build-up and loss of mass on a sensor chip optically.)

Assay [2] has as its target T2, recombinant hGPC1 protein (Homo sapiens, UniProt P35052).
T2 construct: glypican-1 (GPC1), human, recombinant protein from Biolegend; also called Human GPC1; human glypican-1; source: bought: Biolegend
The description is as above. The conditions noted are these: both partners purified.

By Kd is commonly meant a measure of binding affinity in units of concentration.

T1 sequence (Q9QZF2 24-529): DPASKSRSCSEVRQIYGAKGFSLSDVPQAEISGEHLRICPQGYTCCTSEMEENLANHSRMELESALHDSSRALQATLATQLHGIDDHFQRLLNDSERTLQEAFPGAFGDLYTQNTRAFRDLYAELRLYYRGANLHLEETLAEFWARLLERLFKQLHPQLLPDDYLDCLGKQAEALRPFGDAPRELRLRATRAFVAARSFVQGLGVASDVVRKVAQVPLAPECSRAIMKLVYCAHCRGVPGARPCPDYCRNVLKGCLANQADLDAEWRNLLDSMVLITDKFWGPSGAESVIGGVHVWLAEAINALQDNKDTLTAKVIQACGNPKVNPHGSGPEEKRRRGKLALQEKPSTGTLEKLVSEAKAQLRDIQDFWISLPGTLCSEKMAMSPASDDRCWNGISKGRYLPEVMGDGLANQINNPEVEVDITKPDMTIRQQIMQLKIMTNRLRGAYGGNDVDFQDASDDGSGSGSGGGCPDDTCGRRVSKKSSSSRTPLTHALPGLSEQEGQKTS
T2 sequence (P35052 24-530): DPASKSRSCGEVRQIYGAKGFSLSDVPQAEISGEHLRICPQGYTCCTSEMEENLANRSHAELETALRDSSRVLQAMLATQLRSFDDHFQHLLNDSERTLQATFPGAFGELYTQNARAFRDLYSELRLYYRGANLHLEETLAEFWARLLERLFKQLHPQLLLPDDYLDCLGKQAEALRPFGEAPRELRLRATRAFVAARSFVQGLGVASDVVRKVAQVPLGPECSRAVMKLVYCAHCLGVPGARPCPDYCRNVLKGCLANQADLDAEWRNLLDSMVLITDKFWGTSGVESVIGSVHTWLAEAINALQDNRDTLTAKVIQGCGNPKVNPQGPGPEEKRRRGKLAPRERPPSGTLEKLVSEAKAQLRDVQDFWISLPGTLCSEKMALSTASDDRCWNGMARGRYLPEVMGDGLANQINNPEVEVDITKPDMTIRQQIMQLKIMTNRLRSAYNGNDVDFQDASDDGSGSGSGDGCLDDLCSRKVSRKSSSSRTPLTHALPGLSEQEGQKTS

B1: LH form of anti GPC1 scFv-mIgG2a Fc fusion protein (scFv, V domains shown)
VH: AVTLDESGGGLQTPGRALSLVCKASGFTFSRYAMYWVRQAPGKGLEFVAGIGNTGRYTGYGSAVKGRATISRDSGQSTVRLQLNNLRAEDTGNYYCAKSVSPYCCDAADIDAWGHGTEVIVSS
VL: ASTQPSSVSANPGETVKITCSGGSSGYAYGWYQQKSPGSAPVTLLYSNNNRPSDIPSRFSGSKSGSTATLTITGVQAEDEAVYFCGSVDSSSYAGIFGAGTTLTVL
notes: VL of anti-GPC1 mAb (clone: 1–12); purple) and its source data 1; linker of the scFv; orange); VH of anti-GPC1 mAb (clone: 1–12); green) and its source data 1; scFv cloned into pCAG-Neo mIgG2a-Fc plasmid (FUJIFILM Wako); Variable regions come from a chicken-based antibody; In the functional rows the same scFv stood as a CAR (human CD28 and CD3ζ domains) on human T cells; also called LH form of …
Turning to B1, the Kd in assay [1] came out at 51.8 nM; in assay [2] it was 9.06 nM.

B2: HL form of anti GPC1 scFv-mIgG2a Fc fusion protein (scFv, V domains shown)
VH: AVTLDESGGGLQTPGRALSLVCKASGFTFSRYAMYWVRQAPGKGLEFVAGIGNTGRYTGYGSAVKGRATISRDSGQSTVRLQLNNLRAEDTGNYYCAKSVSPYCCDAADIDAWGHGTEVIVSS
VL: ASTQPSSVSANPGETVKITCSGGSSGYAYGWYQQKSPGSAPVTLLYSNNNRPSDIPSRFSGSKSGSTATLTITGVQAEDEAVYFCGSVDSSSYAGIFGAGTTLTVL
notes: VH of anti-GPC1 mAb (clone: 1–12), as the VH of m1; linker of the scFv; orange); VL of anti-GPC1 mAb (clone: 1–12), as the VL of m1; scFv cloned into pCAG-Neo mIgG2a-Fc plasmid (FUJIFILM Wako); Variable regions come from a chicken-based antibody; In the functional rows the same scFv stood as a CAR on human T cells (human CD28/CD3ζ) or murine T cells (mouse CD28/CD3ζ); also called HL form of scFv; …
Regarding B2, the Kd in assay [1] is 109 nM; in assay [2], 12.2 nM.
